The source of these data is US20070265198A1 (ROCKEFELLER UNIVERSITY, published 2007).

Data set [1] concerns the target T1, PlyC-A, the PlyC heavy chain (C1 bacteriophage lysin, ORF 11) (C1 bacteriophage, UniProt Q7Y3F1 2-465).
T1 construct: 50 kDa subunit of the PlyC lysin; also called heavy subunit (ORF 11); plyCA gene product
T1 sequence: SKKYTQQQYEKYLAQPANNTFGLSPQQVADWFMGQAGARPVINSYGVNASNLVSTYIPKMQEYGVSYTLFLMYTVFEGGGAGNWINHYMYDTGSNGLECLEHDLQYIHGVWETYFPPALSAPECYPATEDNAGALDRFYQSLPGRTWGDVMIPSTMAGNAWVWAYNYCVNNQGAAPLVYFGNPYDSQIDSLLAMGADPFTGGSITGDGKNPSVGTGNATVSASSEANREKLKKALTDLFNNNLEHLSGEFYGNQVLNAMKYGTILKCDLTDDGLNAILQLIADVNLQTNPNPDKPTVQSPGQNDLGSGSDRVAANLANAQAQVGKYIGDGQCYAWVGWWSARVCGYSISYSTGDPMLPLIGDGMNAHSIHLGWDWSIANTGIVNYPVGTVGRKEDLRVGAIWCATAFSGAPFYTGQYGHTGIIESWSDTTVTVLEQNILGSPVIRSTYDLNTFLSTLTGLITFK
The data set is described as follows: N-terminal sequencing signals of the native enzyme (55 pm PlyC-B, 12 pm PlyC-A).

The target of data set [2] is T1, PlyC-A, the PlyC heavy chain (C1 …). The data set is described as follows: 35S-methionine labelling of purified PlyC, SDS-PAGE bands counted by scintillation (n=20), cpm per methionine. As to the method:
³⁵S-methionine labeling of PlyC. […] A fresh 20 ml overnight culture of B834/pBAD24::plyC was washed twice with M9 media, and used to inoculate a 2 L flask of M9 minimal media supplemented with 2 mCi ³⁵S-methionine (New England Nuclear). Expression of ³⁵S-Methionine-PlyC was induced with 0.5% arabinose and the enzyme was purified as described above. The heavy and light chains were resolved by SDS-PAGE using 15 μg of labeled PlyC loaded each lane (n=20). Individual bands were cut out of the gel, suspended in 1 ml of SigmaFluor scintillation fluid (Sigma), and counts per minute (cpm) of β-activity was assessed on a Beckman LS5000TD counter.
In order to achieve a mass of 100 kDa, multiple copies of one or both subunits must exist. Thus, PlyC is a multimer. Circumstantial evidence for a molar ratio of 5 light chains to one heavy chain was obtained from N-terminal sequencing of the native enzyme, which yielded a 55 pm signal for PlyC-B and a 12 pm signal for PlyC-A (data not shown). […] Therefore, to further investigate the ratios of PlyC-A and PlyC-B, we cloned plyC into B834 E. coli cells, which are auxotrophic for methionine. […] We were able to enumerate an average signal, measured in counts per minute, for each chain by placing gel-extracted bands (n=20) in scintillation fluid and measuring the β activity (Table IV). […]

Data set [3] addresses T2, PlyC-A, the PlyC heavy chain (C1 bacteriophage lysin, ORF 11).
T2 chain: T1 sequence

B1: PlyC-B, the PlyC light chain (C1 bacteriophage lysin, ORF 9) (enzyme)
chain: SKINVNVENVSGVQGFLFHTDGKESYGYRAFINGVEIGIKDIETVQGFQQIIPSINISKSDVEAIRKAMKK
notes: 8 kDa subunit of the PlyC lysin, a 72 amino acid polypeptide; About six copies per PlyC-A are proposed in the native multimer; also called light subunit (ORF 9); plyCB gene product
Regarding B1, the “molar ratio of light chains to heavy chain” value in data set [1] is 5 light chains per heavy chain. In addition, in data set [2], the “Avg. ratio PlyC-A:PlyC-B” value is 6.17 PlyC-B per PlyC-A. In data set [3], the “PlyC lytic activity of a double transformant (pBAD33::plyCB and pBAD24::plyCA in one host)” value is “Upon induction with 0.5% arabinose, the double transformant contained PlyC activity”; the “activity of the refolded PlyC-B and PlyC-A mixture, normalized to the native PlyC clone (FIG. 3, lane 5)” value is “reconstituted ~25% of the wild-type activity (lane 5)”; the “lytic activity on group A streptococci (chains expressed individually, mixed, incubated 1 hr at room temperature)” value is “When both chains were mixed together and allowed to incubate at room temperature for 1 hr, again no activity was noted”; the “lytic activity on group A streptococci after urea denaturation and refolding of the mixed chains, relative to wild-type PlyC” value is on record as “we were able to reconstitute ~30% of wild-type activity”. In addition, in data set [3], the “lytic activity on group A streptococci of a lil- chimera with full-length plyCB and plyCA” value was “a lil- chimera, which contained full-length plyCB and plyCA, possessed wild-type PlyC activity”.
